Measurements published in paper PMC13129248.

Target: DENV C (dengue virus capsid protein) (Dengue virus 2, strain New Guinea, UniProt O92835 1-100)
Assay: Trp fluorescence quenching and lifetime

AAAGACCAACACCAAGAGGCACAGTAATGGACATT (ssDNA) [C]
binding result: binds
